Measurements reported in patent US5405946A, “Recombinant protein S variants deficient in C4BP binding activity, compositions and therapeutic methods” (The Scripps Research Institute, priority 1992, dated 1995).
One block for each molecule: values may come before it.

Tests used:
thrombin = molecular target: T1, thrombin (Homo sapiens, UniProt P00734); assay: APC cofactor clotting assay after thrombin-Sepharose treatment of PS variants; type: biochemical; settings: for Clotting Time After Treatment: after thrombin treatment, without protein S 72 ± 2 seconds
T1 construct: maintained with 1/20 vol (50 ul) of thrombin-Sepharose for 1 hour at 37C
Description: (§1) An activated partial thromboplastin time clotting assay, using PS- and C4BP-depleted plasma, cephalin-kaolin reagent (Boehringer Mannhein, Indianapolis, Ind.), activated protein C (APC) and increasing amounts of recombinant PS variants was performed as described by Chang et al., Thromb. Haemost., 67:526-532 (1992). Briefly, to 50 ul PS and C4BP-depleted plasma (prepared as described by Koedam et al., J. Clin. Invest., 82:1236-1243 (1988)) was added 50 ul cephalin-kaolin reagent, 25 ul APC (Koedam et al., ibid) at 5 ug/ml and 15 to 45 ul recombinant PS variants (0-4 ug/ml) diluted in Michaelis buffer (28.5 mM sodium acetate, 28.5 mM sodium barbital and 116 mM NaCl, pH 7.35) and maintained for 3 minutes at 37C. Clotting was initiated by addition of 50 ul of 25 mM CaCl2 and the clotting time was measured in an Amelung-Coagulometer KC10.
(§2) The ability of the variants to serve as a cofactor for APC was tested in a clotting assay. The clotting assay was performed as described in Example 2D. To examine the effects of thrombin on recombinant PS variants APC cofactor activity, one ml of purified recombinant PS variants listed above and prepared in Example 1D (4-40 ug/ml) was maintained with 1/20 vol (50 ul) of thrombin-Sepharose for 1 hour at 37C. in 50 mM Tris-HCl pH 7.5 containing […]. Thrombin-Sepharose was removed by centrifugation. Supernatants containing the thrombin-treated PS were stored at -20C. until used.
(§3) The PS-dependent prolongation of the clotting time was measured in an activated partial thromboplastin time system using PS and C4BP depleted plasma, APC and cephalin-kaolin reagent as described in Example 2D. Increasing amounts of recombinant PS or the triple variant treated without or with thrombin were added. Clotting was initiated by the addition of CaCl2 and the clotting time was measured. The results are presented as the means of duplicate values.

[1] = molecular target: activated protein C (APC) (Homo sapiens, UniProt P04070); assay: Activated partial thromboplastin time clotting assay, APC cofactor activity in PS- and C4BP-depleted plasma; type: biochemical
Description: as §1, §2, §3

[2] = concentration 2.38 ug/ml, without protein S 72 ± 2 seconds
[3] = concentration 0.60 ug/ml, without protein S 72 ± 2 seconds
[4] = concentration 1.12 ug/ml, without protein S 72 ± 2 seconds

Sequence of activated protein C (APC) (P04070 212-461 limits assumed): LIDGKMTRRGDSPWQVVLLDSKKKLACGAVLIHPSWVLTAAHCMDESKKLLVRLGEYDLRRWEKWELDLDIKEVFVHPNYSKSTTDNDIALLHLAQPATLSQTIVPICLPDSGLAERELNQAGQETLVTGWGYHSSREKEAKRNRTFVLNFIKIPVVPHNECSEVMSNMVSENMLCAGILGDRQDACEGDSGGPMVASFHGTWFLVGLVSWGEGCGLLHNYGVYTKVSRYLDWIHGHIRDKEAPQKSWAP
Sequence of activated protein C (APC) (P04070 43-197 limits assumed): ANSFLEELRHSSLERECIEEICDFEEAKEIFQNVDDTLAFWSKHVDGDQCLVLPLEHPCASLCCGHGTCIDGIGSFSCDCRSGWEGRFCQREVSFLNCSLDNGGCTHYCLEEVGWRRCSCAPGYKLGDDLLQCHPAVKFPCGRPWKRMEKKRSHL

B1: R49L variant: recombinant protein S single variant in thrombin-sensitive domain, arginine 49 replaced by leucine (protein, UniProt P07225 42-676, looked up, variant R49L)
Vitamin K-dependent protein S: ANSLLEETKQGNLERECIEELCNKEEAREVFENDPETDYFYPKYLVCLLSFQTGLFTAARQSTNAYPDLRSCVNAIPDQCSPLPCNEDGYMSCKDGKASFTCTCKPGWQGEKCEFDINECKDPSNINGGCSQICDNTPGSYHCSCKNGFVMLSNKKDCKDVDECSLKPSICGTAVCKNIPGDFECECPEGYRYNLKSKSCEDIDECSENMCAQLCVNYPGGYTCYCDGKKGFKLAQDQKSCEVVSVCLPLNLDTKYELLYLAEQFAGVVLYLKFRLPEISRFSAEFDFRTYDSEGVILYAESIDHSAWLLIALRGGKIEVQLKNEHTSKITTGGDVINNGLWNMVSVEELEHSISIKIAKEAVMDINKPGPLFKPENGLLETKVYFAGFPRKVESELIKPINPRLDGCIRSWNLMKQGASGIKEIIQEKQNKHCLVTVEKGSYYPGSGIAQFHIDYNNVSSAEGWHVNVTLNIRPSTGTGVMLALVSGNNTVPFAVSLVDSTSEKSQDILLSVENTVIYRIQALSLCSDQQSHLEFRVNRNNLELSTPLKIETISHEDLQRQLAVLDKAMKAKVATYLGGLPDVPFSATPVNAFYNGCMEVNINGVQLDLDEAISKHNDIRAHSCPSVWKKTKNS
Clotting Time After Treatment (thrombin; concentration 0.60 ug/ml): 72 s
Clotting Time [1, 3]: 80 s

B2: R49L/R60L variant: recombinant protein S double variant in thrombin-sensitive domain (protein, UniProt P07225 42-676, looked up, variant R49L R60L)
Vitamin K-dependent protein S: ANSLLEETKQGNLERECIEELCNKEEAREVFENDPETDYFYPKYLVCLLSFQTGLFTAALQSTNAYPDLRSCVNAIPDQCSPLPCNEDGYMSCKDGKASFTCTCKPGWQGEKCEFDINECKDPSNINGGCSQICDNTPGSYHCSCKNGFVMLSNKKDCKDVDECSLKPSICGTAVCKNIPGDFECECPEGYRYNLKSKSCEDIDECSENMCAQLCVNYPGGYTCYCDGKKGFKLAQDQKSCEVVSVCLPLNLDTKYELLYLAEQFAGVVLYLKFRLPEISRFSAEFDFRTYDSEGVILYAESIDHSAWLLIALRGGKIEVQLKNEHTSKITTGGDVINNGLWNMVSVEELEHSISIKIAKEAVMDINKPGPLFKPENGLLETKVYFAGFPRKVESELIKPINPRLDGCIRSWNLMKQGASGIKEIIQEKQNKHCLVTVEKGSYYPGSGIAQFHIDYNNVSSAEGWHVNVTLNIRPSTGTGVMLALVSGNNTVPFAVSLVDSTSEKSQDILLSVENTVIYRIQALSLCSDQQSHLEFRVNRNNLELSTPLKIETISHEDLQRQLAVLDKAMKAKVATYLGGLPDVPFSATPVNAFYNGCMEVNINGVQLDLDEAISKHNDIRAHSCPSVWKKTKNS
Clotting Time After Treatment (thrombin; concentration 1.12 ug/ml): 80 s
Clotting Time [1, 4]: 88 s

B4: R49L/R70I variant: recombinant protein S double variant in thrombin-sensitive domain (protein, UniProt P07225 42-676, looked up, variant R49L R70I)
Vitamin K-dependent protein S: ANSLLEETKQGNLERECIEELCNKEEAREVFENDPETDYFYPKYLVCLLSFQTGLFTAARQSTNAYPDLISCVNAIPDQCSPLPCNEDGYMSCKDGKASFTCTCKPGWQGEKCEFDINECKDPSNINGGCSQICDNTPGSYHCSCKNGFVMLSNKKDCKDVDECSLKPSICGTAVCKNIPGDFECECPEGYRYNLKSKSCEDIDECSENMCAQLCVNYPGGYTCYCDGKKGFKLAQDQKSCEVVSVCLPLNLDTKYELLYLAEQFAGVVLYLKFRLPEISRFSAEFDFRTYDSEGVILYAESIDHSAWLLIALRGGKIEVQLKNEHTSKITTGGDVINNGLWNMVSVEELEHSISIKIAKEAVMDINKPGPLFKPENGLLETKVYFAGFPRKVESELIKPINPRLDGCIRSWNLMKQGASGIKEIIQEKQNKHCLVTVEKGSYYPGSGIAQFHIDYNNVSSAEGWHVNVTLNIRPSTGTGVMLALVSGNNTVPFAVSLVDSTSEKSQDILLSVENTVIYRIQALSLCSDQQSHLEFRVNRNNLELSTPLKIETISHEDLQRQLAVLDKAMKAKVATYLGGLPDVPFSATPVNAFYNGCMEVNINGVQLDLDEAISKHNDIRAHSCPSVWKKTKNS
Clotting Time After Treatment (thrombin; concentration 1.12 ug/ml): 80 s
Clotting Time [1, 4]: 86 s

B6: R60L variant: recombinant protein S single variant in thrombin-sensitive domain, arginine 60 replaced by leucine (protein, UniProt P07225 42-676, looked up, variant R60L)
Vitamin K-dependent protein S: ANSLLEETKQGNLERECIEELCNKEEAREVFENDPETDYFYPKYLVCLRSFQTGLFTAALQSTNAYPDLRSCVNAIPDQCSPLPCNEDGYMSCKDGKASFTCTCKPGWQGEKCEFDINECKDPSNINGGCSQICDNTPGSYHCSCKNGFVMLSNKKDCKDVDECSLKPSICGTAVCKNIPGDFECECPEGYRYNLKSKSCEDIDECSENMCAQLCVNYPGGYTCYCDGKKGFKLAQDQKSCEVVSVCLPLNLDTKYELLYLAEQFAGVVLYLKFRLPEISRFSAEFDFRTYDSEGVILYAESIDHSAWLLIALRGGKIEVQLKNEHTSKITTGGDVINNGLWNMVSVEELEHSISIKIAKEAVMDINKPGPLFKPENGLLETKVYFAGFPRKVESELIKPINPRLDGCIRSWNLMKQGASGIKEIIQEKQNKHCLVTVEKGSYYPGSGIAQFHIDYNNVSSAEGWHVNVTLNIRPSTGTGVMLALVSGNNTVPFAVSLVDSTSEKSQDILLSVENTVIYRIQALSLCSDQQSHLEFRVNRNNLELSTPLKIETISHEDLQRQLAVLDKAMKAKVATYLGGLPDVPFSATPVNAFYNGCMEVNINGVQLDLDEAISKHNDIRAHSCPSVWKKTKNS
Clotting Time After Treatment (thrombin; concentration 2.38 ug/ml): 75 s
Clotting Time [1, 2]: 90 s

Next, values leading:

Clotting Time After Treatment (thrombin; concentration 2.38 ug/ml): 70 s
APC cofactor activity after treatment with thrombin (thrombin; thrombin-Sepharose 1 hour at 37C): significantly decreased
Clotting Time [1, 2]: 91 s
Clotting Time ([1]; final conc. 2.4 ug/ml, basal clotting 80): 116 s
Molecule: rPS wild-type: recombinant wild-type full length human protein S expressed in C127I cells [reference compound]

Clotting Time After Treatment (thrombin; concentration 0.60 ug/ml): 75 s
Clotting Time [1, 3]: 79 s
B3: R70I variant: recombinant protein S single variant in thrombin-sensitive domain, arginine 70 replaced by isoleucine (protein, UniProt P07225 42-676, looked up, variant R70I)
Vitamin K-dependent protein S: ANSLLEETKQGNLERECIEELCNKEEAREVFENDPETDYFYPKYLVCLRSFQTGLFTAARQSTNAYPDLISCVNAIPDQCSPLPCNEDGYMSCKDGKASFTCTCKPGWQGEKCEFDINECKDPSNINGGCSQICDNTPGSYHCSCKNGFVMLSNKKDCKDVDECSLKPSICGTAVCKNIPGDFECECPEGYRYNLKSKSCEDIDECSENMCAQLCVNYPGGYTCYCDGKKGFKLAQDQKSCEVVSVCLPLNLDTKYELLYLAEQFAGVVLYLKFRLPEISRFSAEFDFRTYDSEGVILYAESIDHSAWLLIALRGGKIEVQLKNEHTSKITTGGDVINNGLWNMVSVEELEHSISIKIAKEAVMDINKPGPLFKPENGLLETKVYFAGFPRKVESELIKPINPRLDGCIRSWNLMKQGASGIKEIIQEKQNKHCLVTVEKGSYYPGSGIAQFHIDYNNVSSAEGWHVNVTLNIRPSTGTGVMLALVSGNNTVPFAVSLVDSTSEKSQDILLSVENTVIYRIQALSLCSDQQSHLEFRVNRNNLELSTPLKIETISHEDLQRQLAVLDKAMKAKVATYLGGLPDVPFSATPVNAFYNGCMEVNINGVQLDLDEAISKHNDIRAHSCPSVWKKTKNS

Clotting Time After Treatment (thrombin; concentration 0.60 ug/ml): 72 s
Clotting Time [1, 3]: 79 s
B5: R60L/R70I variant: recombinant protein S double variant in thrombin-sensitive domain (protein, UniProt P07225 42-676, looked up, variant R60L R70I)
Vitamin K-dependent protein S: ANSLLEETKQGNLERECIEELCNKEEAREVFENDPETDYFYPKYLVCLRSFQTGLFTAALQSTNAYPDLISCVNAIPDQCSPLPCNEDGYMSCKDGKASFTCTCKPGWQGEKCEFDINECKDPSNINGGCSQICDNTPGSYHCSCKNGFVMLSNKKDCKDVDECSLKPSICGTAVCKNIPGDFECECPEGYRYNLKSKSCEDIDECSENMCAQLCVNYPGGYTCYCDGKKGFKLAQDQKSCEVVSVCLPLNLDTKYELLYLAEQFAGVVLYLKFRLPEISRFSAEFDFRTYDSEGVILYAESIDHSAWLLIALRGGKIEVQLKNEHTSKITTGGDVINNGLWNMVSVEELEHSISIKIAKEAVMDINKPGPLFKPENGLLETKVYFAGFPRKVESELIKPINPRLDGCIRSWNLMKQGASGIKEIIQEKQNKHCLVTVEKGSYYPGSGIAQFHIDYNNVSSAEGWHVNVTLNIRPSTGTGVMLALVSGNNTVPFAVSLVDSTSEKSQDILLSVENTVIYRIQALSLCSDQQSHLEFRVNRNNLELSTPLKIETISHEDLQRQLAVLDKAMKAKVATYLGGLPDVPFSATPVNAFYNGCMEVNINGVQLDLDEAISKHNDIRAHSCPSVWKKTKNS
